In test [1] the target is T1, rat calcitonin receptor (rat, UniProt P32214 25-516).
T1 construct: whole, on cells; Used as membranes prepared from the transfected cells; also called rCTR; rCT
T1 sequence (looked up): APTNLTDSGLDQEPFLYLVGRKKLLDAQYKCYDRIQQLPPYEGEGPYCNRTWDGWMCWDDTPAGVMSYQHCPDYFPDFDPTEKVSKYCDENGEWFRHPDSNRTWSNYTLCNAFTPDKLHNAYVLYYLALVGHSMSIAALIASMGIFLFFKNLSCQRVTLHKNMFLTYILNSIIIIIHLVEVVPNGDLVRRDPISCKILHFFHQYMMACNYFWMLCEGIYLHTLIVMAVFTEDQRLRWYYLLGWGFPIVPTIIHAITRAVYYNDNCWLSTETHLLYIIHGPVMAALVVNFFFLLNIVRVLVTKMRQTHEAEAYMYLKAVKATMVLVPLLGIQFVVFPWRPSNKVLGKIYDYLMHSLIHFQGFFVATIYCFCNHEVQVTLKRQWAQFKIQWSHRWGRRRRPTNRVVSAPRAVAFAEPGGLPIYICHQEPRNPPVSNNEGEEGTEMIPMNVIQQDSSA
The test can be described thus: SPA competition with 125I-calcitonin, membranes with rat calcitonin receptor (Assay VIII).

The target in test [2] is T2, human calcitonin receptor (human, UniProt P30988 25-474).
T2 construct: whole, on cells; Used as membranes prepared from the transfected cells; also called hCTR; hCT
T2 sequence (looked up): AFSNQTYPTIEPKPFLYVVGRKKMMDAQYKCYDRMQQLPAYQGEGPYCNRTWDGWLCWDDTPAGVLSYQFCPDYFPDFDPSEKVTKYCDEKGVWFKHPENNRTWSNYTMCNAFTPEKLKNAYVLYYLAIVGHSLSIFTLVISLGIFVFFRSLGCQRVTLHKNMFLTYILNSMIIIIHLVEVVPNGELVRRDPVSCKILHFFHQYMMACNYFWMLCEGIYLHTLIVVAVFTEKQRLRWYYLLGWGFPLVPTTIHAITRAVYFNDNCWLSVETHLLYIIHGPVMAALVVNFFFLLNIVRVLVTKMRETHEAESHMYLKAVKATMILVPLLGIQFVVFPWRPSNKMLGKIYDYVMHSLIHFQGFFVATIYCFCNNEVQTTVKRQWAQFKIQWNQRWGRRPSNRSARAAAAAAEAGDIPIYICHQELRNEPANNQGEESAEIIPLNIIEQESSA
Nature of the test: ratio of binding IC50 at human calcitonin receptor to IC50 at human amylin receptor (reference). As to the method: The resulting pellet was resuspended, homogenized and centrifuged (20.000 rpm, 15 min) in a buffer containing 20 mM Na-HEPES and 0.1 mM EDTA (pH 7.4, buffer 2). The resulting pellet was resuspended in buffer 2 and protein concentration was measured (BCA protein Assay, Pierce). The homogenate was kept cold during the whole procedure. The membranes were kept at −80° C. until use. The assay was performed in a 384 well Optiplate (PerkinElmer) in a total volume of 40 ul. Membranes were mixed with SPA beads. Final concentration of membranes 35 ng/μL final and SPA beads was 0.05 mg/well. Test-compounds were dissolved in DMSO and further diluted in assay buffer (50 mM Hepes, pH 7.4, 1 mM CaCl2, 5 mM MgCl₂, 0.1% OA and 0.02% Tween20). […] The final mixture was incubated with shaking at 400 rpm for 120 min at 25° C. prior to centrifugation (1500 rpm, 10 min). Samples were analyzed on TopCounter™ (Packard). The IC₅₀ was calculated using (one site binding competition analysis) GraphPad Prism5 as a measure of receptor affinity.
Membranes were prepared in the following way; the cells were rinsed with PBS and incubated with Versene for approximately 5 min before harvesting. The cells were flushed with PBS and the cell-suspension was centrifuged for 5 min at 1000 rpm. Cells were homogenized (Ultrathurrax) in a buffer containing 20 mM Na-HEPES and 10 mM EDTA (pH 7.4) and centrifuged at 20.000 rpm for 15 min. The resulting pellet was resuspended, homogenized and centrifuged (20.000 rpm, 15 min) in a buffer containing 20 mM Na-HEPES and 0.1 mM EDTA (pH 7.4, buffer 2). The resulting pellet was resuspended in buffer 2 and protein concentration was measured (BCA protein Assay, Pierce). The homogenate was kept cold during the whole procedure. The membranes were kept at −80° C. until use. Assay was performed in a 384 well Optiplate (PerkinElmer) in a total volume of 40 ul. Membranes were mixed with SPA beads.

For test [3], the target named is T1, rat calcitonin receptor. Nature of the test: ratio of binding IC50 at rat calcitonin receptor to IC50 at rat amylin receptor (reference).

The results in this text go back to patent US20140087995A1 (published 2014).

Numbered stars: 1 amine (or outer) side, 2 acyl side, 3 side chain; on linkers, the order of the positions; unused ones are H or OH. Bridge positions count the residues as written; N and C are the ends. Side chains are listed from the residue outwards. Ends that are not written are not given here. * marks the point of attachment. C20 diacid = O=C(O)CCCCCCCCCCCCCCCCCCC(=O)*; γGlu = O=C(O)[C@H](CCC(=O)[*:2])N[*:1]; AEEA = NCCOCCOCC(=O)O

By IC50 is commonly meant the concentration that gives 50% inhibition.

B1: N^ε1-[2-[2-[2-[[(4S)-4-carboxy-4-(19-carboxynonadecanoylamino)butanoyl]amino]ethoxy]ethoxy]acetyl]-[His14,Arg17,Pro21,Pro27]-h-amylin (peptide)
peptide: K([AEEA-γGlu-C20 diacid])CNTATCATQRLAHFLRHSSPNFGAIPSSTNVGSNTY-NH2
modifications: disulfide 2-7; N-terminus assumed
SMILES: CC[C@H](C)[C@H](NC(=O)[C@H](C)NC(=O)CNC(=O)[C@H](Cc1ccccc1)NC(=O)[C@H](CC(N)=O)NC(=O)[C@@H]1CCCN1C(=O)[C@H](CO)NC(=O)[C@H](CO)NC(=O)[C@H](Cc1c[nH]cn1)NC(=O)[C@H](CCCNC(=N)N)NC(=O)[C@H](CC(C)C)NC(=O)[C@H](Cc1ccccc1)NC(=O)[C@H](Cc1c[nH]cn1)NC(=O)[C@H](C)NC(=O)[C@H](CC(C)C)NC(=O)[C@H](CCCNC(=N)N)NC(=O)[C@H](CCC(N)=O)NC(=O)[C@@H](NC(=O)[C@H](C)NC(=O)[C@@H]1CSSC[C@H](NC(=O)[C@@H](N)CCCCNC(=O)COCCOCCNC(=O)CC[C@H](NC(=O)CCCCCCCCCCCCCCCCCCC(=O)O)C(=O)O)C(=O)N[C@@H](CC(N)=O)C(=O)N[C@@H]([C@@H](C)O)C(=O)N[C@@H](C)C(=O)N[C@@H]([C@@H](C)O)C(=O)N1)[C@@H](C)O)C(=O)N1CCC[C@H]1C(=O)N[C@@H](CO)C(=O)N[C@@H](CO)C(=O)N[C@H](C(=O)N[C@@H](CC(N)=O)C(=O)N[C@H](C(=O)NCC(=O)N[C@@H](CO)C(=O)N[C@@H](CC(N)=O)C(=O)N[C@H](C(=O)N[C@@H](Cc1ccc(O)cc1)C(N)=O)[C@@H](C)O)C(C)C)[C@@H](C)O
notes: Analogue of human amylin; disulfide and C-terminal amide as told for h-amylin; also called compound 69
As for B1, in test [1], the IC50 is 46.8 nM. Moreover, the “Ratio hCT/hAmylin binding” value in test [2] came to 65.3. Further, the “Ratio rCT/rAmylin binding” value in test [3] worked out at 104.

B2: N^ε1-[2-[2-[2-[[(4S)-4-carboxy-4-(19-carboxynonadecanoylamino)butanoyl]amino]ethoxy]ethoxy]acetyl]-[Ala14,Arg17,Pro21,Pro27,Pro31]-h-amylin (peptide)
peptide: K([AEEA-γGlu-C20 diacid])CNTATCATQRLAAFLRHSSPNFGAIPSSTPVGSNTY-NH2
modifications: disulfide 2-7; N-terminus assumed
SMILES: CC[C@H](C)[C@H](NC(=O)[C@H](C)NC(=O)CNC(=O)[C@H](Cc1ccccc1)NC(=O)[C@H](CC(N)=O)NC(=O)[C@@H]1CCCN1C(=O)[C@H](CO)NC(=O)[C@H](CO)NC(=O)[C@H](Cc1c[nH]cn1)NC(=O)[C@H](CCCNC(=N)N)NC(=O)[C@H](CC(C)C)NC(=O)[C@H](Cc1ccccc1)NC(=O)[C@H](C)NC(=O)[C@H](C)NC(=O)[C@H](CC(C)C)NC(=O)[C@H](CCCNC(=N)N)NC(=O)[C@H](CCC(N)=O)NC(=O)[C@@H](NC(=O)[C@H](C)NC(=O)[C@@H]1CSSC[C@H](NC(=O)[C@@H](N)CCCCNC(=O)COCCOCCNC(=O)CC[C@H](NC(=O)CCCCCCCCCCCCCCCCCCC(=O)O)C(=O)O)C(=O)N[C@@H](CC(N)=O)C(=O)N[C@@H]([C@@H](C)O)C(=O)N[C@@H](C)C(=O)N[C@@H]([C@@H](C)O)C(=O)N1)[C@@H](C)O)C(=O)N1CCC[C@H]1C(=O)N[C@@H](CO)C(=O)N[C@@H](CO)C(=O)N[C@H](C(=O)N1CCC[C@H]1C(=O)N[C@H](C(=O)NCC(=O)N[C@@H](CO)C(=O)N[C@@H](CC(N)=O)C(=O)N[C@H](C(=O)N[C@@H](Cc1ccc(O)cc1)C(N)=O)[C@@H](C)O)C(C)C)[C@@H](C)O
notes: Analogue of human amylin; disulfide and C-terminal amide as told for h-amylin; also called compound 72
As to B2, the IC50 in test [1] turned out to be 221 nM. Besides, the “Ratio hCT/hAmylin binding” value in test [2] came out at 247. Moreover, the “Ratio rCT/rAmylin binding” value in test [3] is 259.

B3: N^ε1-[2-[2-[2-(19-carboxynonadecanoylamino)ethoxy]ethoxy]acetyl]-[Arg17,Pro21,Pro27,His34]-h-amylin (peptide)
peptide: K([AEEA-C20 diacid])CNTATCATQRLANFLRHSSPNFGAIPSSTNVGHNTY-NH2
modifications: disulfide 2-7; N-terminus assumed
SMILES: CC[C@H](C)[C@H](NC(=O)[C@H](C)NC(=O)CNC(=O)[C@H](Cc1ccccc1)NC(=O)[C@H](CC(N)=O)NC(=O)[C@@H]1CCCN1C(=O)[C@H](CO)NC(=O)[C@H](CO)NC(=O)[C@H](Cc1c[nH]cn1)NC(=O)[C@H](CCCNC(=N)N)NC(=O)[C@H](CC(C)C)NC(=O)[C@H](Cc1ccccc1)NC(=O)[C@H](CC(N)=O)NC(=O)[C@H](C)NC(=O)[C@H](CC(C)C)NC(=O)[C@H](CCCNC(=N)N)NC(=O)[C@H](CCC(N)=O)NC(=O)[C@@H](NC(=O)[C@H](C)NC(=O)[C@@H]1CSSC[C@H](NC(=O)[C@@H](N)CCCCNC(=O)COCCOCCNC(=O)CCCCCCCCCCCCCCCCCCC(=O)O)C(=O)N[C@@H](CC(N)=O)C(=O)N[C@@H]([C@@H](C)O)C(=O)N[C@@H](C)C(=O)N[C@@H]([C@@H](C)O)C(=O)N1)[C@@H](C)O)C(=O)N1CCC[C@H]1C(=O)N[C@@H](CO)C(=O)N[C@@H](CO)C(=O)N[C@H](C(=O)N[C@@H](CC(N)=O)C(=O)N[C@H](C(=O)NCC(=O)N[C@@H](Cc1c[nH]cn1)C(=O)N[C@@H](CC(N)=O)C(=O)N[C@H](C(=O)N[C@@H](Cc1ccc(O)cc1)C(N)=O)[C@@H](C)O)C(C)C)[C@@H](C)O
notes: Analogue of human amylin; disulfide and C-terminal amide as told for h-amylin; also called compound 91
Regarding B3, in test [1], the IC50 is 29.4 nM. In addition, the “Ratio hCT/hAmylin binding” value in test [2] was found to be 101. For the same molecule, the “Ratio rCT/rAmylin binding” value in test [3] was determined as 76.3.

B4: N^ε1-[2-[2-[2-[[(4S)-4-carboxy-4-(19-carboxynonadecanoylamino)butanoyl]amino]ethoxy]ethoxy]acetyl]-[Arg14,Arg17,Pro21,Pro27,Pro31]-h-amylin (peptide)
peptide: K([AEEA-γGlu-C20 diacid])CNTATCATQRLARFLRHSSPNFGAIPSSTPVGSNTY-NH2
modifications: disulfide 2-7; N-terminus assumed
SMILES: CC[C@H](C)[C@H](NC(=O)[C@H](C)NC(=O)CNC(=O)[C@H](Cc1ccccc1)NC(=O)[C@H](CC(N)=O)NC(=O)[C@@H]1CCCN1C(=O)[C@H](CO)NC(=O)[C@H](CO)NC(=O)[C@H](Cc1c[nH]cn1)NC(=O)[C@H](CCCNC(=N)N)NC(=O)[C@H](CC(C)C)NC(=O)[C@H](Cc1ccccc1)NC(=O)[C@H](CCCNC(=N)N)NC(=O)[C@H](C)NC(=O)[C@H](CC(C)C)NC(=O)[C@H](CCCNC(=N)N)NC(=O)[C@H](CCC(N)=O)NC(=O)[C@@H](NC(=O)[C@H](C)NC(=O)[C@@H]1CSSC[C@H](NC(=O)[C@@H](N)CCCCNC(=O)COCCOCCNC(=O)CC[C@H](NC(=O)CCCCCCCCCCCCCCCCCCC(=O)O)C(=O)O)C(=O)N[C@@H](CC(N)=O)C(=O)N[C@@H]([C@@H](C)O)C(=O)N[C@@H](C)C(=O)N[C@@H]([C@@H](C)O)C(=O)N1)[C@@H](C)O)C(=O)N1CCC[C@H]1C(=O)N[C@@H](CO)C(=O)N[C@@H](CO)C(=O)N[C@H](C(=O)N1CCC[C@H]1C(=O)N[C@H](C(=O)NCC(=O)N[C@@H](CO)C(=O)N[C@@H](CC(N)=O)C(=O)N[C@H](C(=O)N[C@@H](Cc1ccc(O)cc1)C(N)=O)[C@@H](C)O)C(C)C)[C@@H](C)O
notes: Analogue of human amylin; disulfide and C-terminal amide as told for h-amylin; also called compound 64
Take B4: the IC50 in test [1] turned out to be 128 nM. Also, the “Ratio hCT/hAmylin binding” value in test [2] was 126. Besides, the “Ratio rCT/rAmylin binding” value in test [3] came out at 64.7.
